Here are results for 29 variants from PMC9557730 (2022).

B1: C-terminal 3× FLAG-tagged WT Tfb2 [Saccharomyces cerevisiae] / Ssl2 [S. cerevisiae (endogenous in yeast)] (parent complex)
chain 1: MSDYSLKHSVTQYLEEIPQQVQNRLYTSPATCLAIYRILPPLAKFFIMAMVFNENEVPLLDLDKWVNSNGKLQFQNAIKSMKSLHLLIPNKSSGTLMINLNPTFKISLRNALTGGEVQNSFGVVVEENVVSLDLLDEYSANKWETILHFMVGTPLAKIPSEKVLNLLKHSKLMEEVNSTGEFKITNEGFQFLLQEINSQLWTLLLQYLKMIETSKMDLVDVLHFIFMLGALEVGKAYKIDALSETQRIMLQDMRDYGLVFQKHSNDSIFYPTKLALMLTSDTKTIRSASNAMDSVLRQNREEPSVNEDGANGKSTTDITTSDDLNKAGLKNQDIPDGSLIVETNFKIYSYSNSPLQIAVLSLFVHLKARFVNMVLGQITRESIRRALTNGITADQIIAYLETHAHPQMRRLAEEKLEKKLELDPNCKEPLQVLPPTVVDQIRLWQLELDRVITYEGSLYSDFETSQEYNLLSKYAQDIGVLLWKDDKKKKFFISKEGNSQVLDFAKRKLKKKQ
chain 2: MTDVEGYQPKSKGKIFPDMGESFFSSDEDSPATDAEIDENYDDNRETSEGRGERDTGAMVTGLKKPRKKTKSSRHTAADSSMNQMDAKDKALLQDTNSDIPADFVPDSVSGMFRSHDFSYLRLRPDHASRPLWISPSDGRIILESFSPLAEQAQDFLVTIAEPISRPSHIHEYKITAYSLYAAVSVGLETDDIISVLDRLSKVPVAESIINFIKGATISYGKVKLVIKHNRYFVETTQADILQMLLNDSVIGPLRIDSDHQVQPPEDVLQQQLQQTAGKPATNVNPNDVEAVFSAVIGGDNEREEEDDDIDAVHSFEIANESVEVVKKRCQEIDYPVLEEYDFRNDHRNPDLDIDLKPSTQIRPYQEKSLSKMFGNGRARSGIIVLPCGAGKTLVGITAACTIKKSVIVLCTSSVSVMQWRQQFLQWCTLQPENCAVFTSDNKEMFQTESGLVVSTYSMVANTRNRSHDSQKVMDFLTGREWGFIILDEVHVVPAAMFRRVVSTIAAHAKLGLTATLVREDDKIGDLNFLIGPKLYEANWMELSQKGHIANVQCAEVWCPMTAEFYQEYLRETARKRMLLYIMNPTKFQACQFLIQYHERRGDKIIVFSDNVYALQEYALKMGKPFIYGSTPQQERMNILQNFQYNDQINTIFLSKVGDTSIDLPEATCLIQISSHYGSRRQEAQRLGRILRAKRRNDEGFNAFFYSLVSKDTQEMYYSTKRQAFLVDQGYAFKVITHLHGMENIPNLAYASPRERRELLQEVLLKNEEAAGIEVGDDADNSVGRGSNGHKRFKSKAVRGEGSLSGLAGGEDMAYMEYSTNKNKELKEHHPLIRKMYYKNLKK
B2: N-terminal 3×-FLAG-tagged p52 (WT) [human] / p34 [human (endogenous in HEK293T)] (parent complex)
chain 1: MESTPSRGLNRVHLQCRNLQEFLGGLSPGVLDRLYGHPATCLAVFRELPSLAKNWVMRMLFLEQPLPQAAVALWVKKEFSKAQEESTGLLSGLRIWHTQLLPGGLQGLILNPIFRQNLRIALLGGGKAWSDDTSQLGPDKHARDVPSLDKYAEERWEVVLHFMVGSPSAAVSQDLAQLLSQAGLMKSTEPGEPPCITSAGFQFLLLDTPAQLWYFMLQYLQTAQSRGMDLVEILSFLFQLSFSTLGKDYSVEGMSDSLLNFLQHLREFGLVFQRKRKSRRYYPTRLAINLSSGVSGAGGTVHQPGFIVVETNYRLYAYTESELQIALIALFSEMLYRFPNMVVAQVTRESVQQAIASGITAQQIIHFLRTRAHPVMLKQTPVLPPTITDQIRLWELERDRLRFTEGVLYNQFLSQVDFELLLAHARELGVLVFENSAKRLMVVTPAGHSDVKRFWKRQKHSS
chain 2: MVSDEDELNLLVIVVDANPIWWGKQALKESQFTLSKCIDAVMVLGNSHLFMNRSNKLAVIASHIQESRFLYPGKNGRLGDFFGDPGNPPEFNPSGSKDGKYELLTSANEVIVEEIKDLMTKSDIKGQHTETLLAGSLAKALCYIHRMNKEVKDNQEMKSRILVIKAAEDSALQYMNFMNVIFAAQKQNILIDACVLDSDSGLLQQACDITGGLYLKVPQMPSLLQYLLWVFLPDQDQRSQLILPPPVHVDYRAACFCHRNLIEIGYVCSVCLSIFCNFSPICTTCETAFKISLPPVLKAKKKKLKVSA
B3: N-terminal 3×-FLAG-tagged p52 (WT) [human] / XPB [human (endogenous in HEK293T)] (parent complex)
chain 1: B2 chain 1
chain 2: MGKRDRADRDKKKSRKRHYEDEEDDEEDAPGNDPQEAVPSAAGKQVDESGTKVDEYGAKDYRLQMPLKDDHTSRPLWVAPDGHIFLEAFSPVYKYAQDFLVAIAEPVCRPTHVHEYKLTAYSLYAAVSVGLQTSDITEYLRKLSKTGVPDGIMQFIKLCTVSYGKVKLVLKHNRYFVESCHPDVIQHLLQDPVIRECRLRNSEGEATELITETFTSKSAISKTAESSGGPSTSRVTDPQGKSDIPMDLFDFYEQMDKDEEEEEETQTVSFEVKQEMIEELQKRCIHLEYPLLAEYDFRNDSVNPDINIDLKPTAVLRPYQEKSLRKMFGNGRARSGVIVLPCGAGKSLVGVTAACTVRKRCLVLGNSAVSVEQWKAQFKMWSTIDDSQICRFTSDAKDKPIGCSVAISTYSMLGHTTKRSWEAERVMEWLKTQEWGLMILDEVHTIPAKMFRRVLTIVQAHCKLGLTATLVREDDKIVDLNFLIGPKLYEANWMELQNNGYIAKVQCAEVWCPMSPEFYREYVAIKTKKRILLYTMNPNKFRACQFLIKFHERRNDKIIVFADNVFALKEYAIRLNKPYIYGPTSQGERMQILQNFKHNPKINTIFISKVGDTSFDLPEANVLIQISSHGGSRRQEAQRLGRVLRAKKGMVAEEYNAFFYSLVSQDTQEMAYSTKRQRFLVDQGYSFKVITKLAGMEEEDLAFSTKEEQQQLLQKVLAATDLDAEEEVVAGEFGSRSSQASRRFGTMSSMSGADDTVYMEYHSSRSKAPSKHVHPLFKRFRK
B4: N-terminal 3×-FLAG-tagged p52 (WT) [human] / p8 [human (endogenous in HEK293T)] (parent complex)
chain 1: B2 chain 1
chain 2: MVNVLKGVLIECDPAMKQFLLYLDESNALGKKFIIQDIDDTHVFVIAELVNVLQERVGELMDQNAFSLTQK

In the first test the parent is B1. The experiment in a line: FLAG IP and Western blot; whole-cell extracts; FLAG-tagged Tfb2 variants coexpressed with endogenous Tfb2; two biological replicates; read off a plot.
For chain 1 I378A, chain 1 T379A, chain 1 R380A, the response was around 0.21 Western Signal/Tfb2-FLAG.
The same measure, in the same setting: with chain 1 R369A, chain 1 F370A the figure was around 0.07 Western Signal/Tfb2-FLAG.
For the variant chain 1 I396A, chain 1 I397A, the response is around 0.38 Western Signal/Tfb2-FLAG.
On the same count and under the same terms, next, chain 1 F370A: around 0.085 Western Signal/Tfb2-FLAG; chain 1 I378A, chain 1 T379A: around 0.29 Western Signal/Tfb2-FLAG.
Still for that read-out and setting: with chain 1 Y399A, chain 1 L400A the figure was around 0.28 Western Signal/Tfb2-FLAG.
As for chain 1 E447K, the response was around 0.5 Western Signal/Tfb2-FLAG.
Same read-out and setting: next, chain 1 G390A, chain 1 I391A, chain 1 T392A: around 0.2 Western Signal/Tfb2-FLAG.
Still for that read-out and setting: next, chain 1 L360A, chain 1 L362A, chain 1 F363A: around 0.17 Western Signal/Tfb2-FLAG; chain 1 E342R, chain 1 K346E: around 0.11 Western Signal/Tfb2-FLAG.
On the same count and under the same terms, next, chain 1 Y348A, chain 1 Y350A: around 0.19 Western Signal/Tfb2-FLAG.
For chain 1 I347A, chain 1 Y348A, chain 1 Y350A, the response is around 0.14 Western Signal/Tfb2-FLAG.
The same measure, in the same setting: with chain 1 L339A, chain 1 I340A, chain 1 V341A the figure was around 0.11 Western Signal/Tfb2-FLAG.
As for chain 1 E342F, the response is around 0.085 Western Signal/Tfb2-FLAG.
Consider chain 1 Q395A, chain 1 I396A, chain 1 I397A, for which the response was around 0.35 Western Signal/Tfb2-FLAG.
Still for that read-out and setting: next, chain 1 I347A, chain 1 Y348A: around 0.23 Western Signal/Tfb2-FLAG.
Still for that read-out and setting: with chain 1 D439A, chain 1 E447A, chain 1 R450A the figure was around 0.58 Western Signal/Tfb2-FLAG.

In the next test the parent is B2. The experiment in a line: FLAG-IP LC–MS (iBAQ); HEK293T nuclear extracts; n = 3, biological replicates; read off a plot.
For chain 1 R337A, chain 1 F338A, the response was around 0.73 Normalized Log2 iBAQ.
Still for that read-out and setting: with chain 1 Y316A, chain 1 Y318A the figure was around 0.67 Normalized Log2 iBAQ; with chain 1 E310F, around 0.64 Normalized Log2 iBAQ; with chain 1 E310A, chain 1 R314A, around 0.67 Normalized Log2 iBAQ.

The variants in a further test derive from B3. The experiment in a line: FLAG-IP–Western; HEK293T nuclear extracts; n = 3, biological replicates; read off a plot.
As for chain 1 R337A, chain 1 F338A, the response was around 0.03 Normalized Western Signal.
The same measure, in the same setting: with chain 1 Y316A, chain 1 Y318A the figure was around 0.02 Normalized Western Signal; with chain 1 E310F, around 0.01 Normalized Western Signal; with chain 1 E310A, chain 1 R314A, around 0.13 Normalized Western Signal.

The variants in a further test derive from B3. The experiment in a line: FLAG-IP LC–MS (iBAQ); HEK293T nuclear extracts; n = 3, biological replicates; read off a plot.
Consider chain 1 R337A, chain 1 F338A, for which the response is around 0.67 Normalized Log2 iBAQ.
As to chain 1 Y316A, chain 1 Y318A, the response was around 0.63 Normalized Log2 iBAQ.
As to chain 1 E310F, the response was around 0.57 Normalized Log2 iBAQ.
The same measure, in the same setting: next, chain 1 E310A, chain 1 R314A: around 0.78 Normalized Log2 iBAQ.

A further test covers variants of B4. The description is as above.
As for chain 1 E310F, the response was around 0.86 Normalized Log2 iBAQ.
Still for that read-out and setting: next, chain 1 R337A, chain 1 F338A: around 0.84 Normalized Log2 iBAQ; chain 1 E310A, chain 1 R314A: around 0.83 Normalized Log2 iBAQ.
Consider chain 1 Y316A, chain 1 Y318A, for which the response is around 0.83 Normalized Log2 iBAQ.
